Laboratory results: US11260098B2, “Method for suppressing obesity or development of obesity” (priority 2014, dated 2022)

Key:
[1] = system: mice; assay: Conditioned taste aversion preference test; assay type: in vivo; conditions: i.p. 0.5 ml, dose giving about 1/2 food suppression (1/4 dilution, 1/16 dilution, undiluted filtrate), FIG. 14
Experimental: 8. […] To define whether the appetite-suppressing effects induced by the undiluted solution of liquid component, the residual liquid containing the >3,000 component, and the filtrated liquid containing the <3,000 component were non-specific, a conditioned taste aversive test (a conditioned taste aversion preference test) was carried out in mice. For 5 days, each of mice was adapted to two bottles containing water, allowing to the drinking schedule of 2 hours per day (10:00 am to 12:00). On Day 6 of the test, each mice was allowed to drink water for 30 minutes followed by installation of 2 bottles added with saccharine solution (0.15%). Thereafter, saline, the liquid components or lithium chloride (molecular weight: 42.4 daltons) solution, each in an amount of 0.5 ml, was intraperitoneally administered to mice (n=5), and the conditions were set up as the aversion learning of the taste against saccharine solution. Subsequently, each of mice was subjected to drink for 90 minutes using 2 botties with water. […] On Day 8 of the test, the animals were allowed to drink for 30 minutes using 2 bottles with either water or saccharine solution, and the preference ratio for drinking of saccharine solution (the amounts of saccharine solution intake÷the amounts of entire water intake for 2 bottles) was calculated. […] The data are expressed as mean value±standard deviation. […]

[2] = system: rat; conditions: centrally administered to the rat ventricle; cited from earlier work
[3] = intraperitoneal administration; cited from earlier work

In the case of `[Cl-].[Li+]` [lithium chloride], the “preference intake of saccharine solution” value [1] is reported as “significantly suppressed”.

B1: nesfatin-1: satiety molecule generated by processing of the secretory protein nesfatin; human nesfatin-1 9,695 daltons (protein, UniProt P80303 25-106, looked up)
Nesfatin-1: VPIDIDKTKVQNIHPVESAKIEPPDTGLYYDEYLKQVIDVLETDKHFREKLQKADIEEIKSGRLSKELDLVSHHVRTKLDEL
modifications: Nesfatin-1
notes: satiety molecule generated by processing of the secretory protein nesfatin; human nesfatin-1 9,695 daltons
In the case of B1, the food intake [2] is listed as “significantly suppressed” and the appetite suppression [3] is listed as “induced appetite suppression in a dose-dependent manner”.
